Reference: PMC10599462, “Molecular basis of sulfolactate synthesis by sulfolactaldehyde dehydrogenase from Rhizobium leguminosarum” (Chemical Science, 2023)
Where two headings read alike, the source gives them in different places. Blank lines part the entries; values can stand above or below the molecule they belong to.

Experiments:
[1] = target: SLA dehydrogenase RlGabD from Rhizobium leguminosarum SRDI565 (Rhizobium leguminosarum bv. trifolii SRDI565); assay: SEC-MALS; SEC-MALLS of RlGabD in solution; homotetramer
[2] = target: T1, RlGabD (SLA dehydrogenase) (Rhizobium leguminosarum, UniProt A0AAJ6N661); assay: biochemical; design: gene EV132_10158; recombinant RlGabD; nanoDSF thermal shift (F350/F330 intrinsic fluorescence) of recombinant RlGabD with ligand; settings: nanoDSF, average of 2 replicates; read-out: ∆Tm (Avg)
T1 sequence (A0AAJ6N661 1-489): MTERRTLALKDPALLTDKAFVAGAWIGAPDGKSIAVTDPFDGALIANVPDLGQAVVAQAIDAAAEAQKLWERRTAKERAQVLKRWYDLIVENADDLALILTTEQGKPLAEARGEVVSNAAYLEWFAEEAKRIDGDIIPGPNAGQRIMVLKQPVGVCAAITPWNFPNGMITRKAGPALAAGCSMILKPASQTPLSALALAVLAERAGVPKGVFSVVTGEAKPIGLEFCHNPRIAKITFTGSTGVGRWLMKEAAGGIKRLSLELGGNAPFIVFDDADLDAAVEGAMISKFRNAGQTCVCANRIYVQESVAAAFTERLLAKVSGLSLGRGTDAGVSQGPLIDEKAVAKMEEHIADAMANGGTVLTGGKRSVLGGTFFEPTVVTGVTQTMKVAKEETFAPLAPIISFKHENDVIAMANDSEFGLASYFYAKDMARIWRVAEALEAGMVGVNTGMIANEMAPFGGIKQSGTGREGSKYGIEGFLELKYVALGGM

[3] = target: T1, RlGabD (SLA dehydrogenase); assay: enzyme inhibition assay with constant SLA and NAD+; type: biochemical; design: gene EV132_10158; recombinant RlGabD
[4] = target: T1, RlGabD (SLA dehydrogenase); assay: biochemical; design: gene EV132_10158; recombinant RlGabD; nanoDSF thermal shift (F350/F330 intrinsic fluorescence) of recombinant RlGabD with ligand; settings: nanoDSF, average of 2 replicates; read-out: ∆Tm (Avg); remark: listed apart in the source
[5] = target: T1, RlGabD (SLA dehydrogenase); assay: cryo-EM structure of binary complex at […] Å; type: binding; design: gene EV132_10158; recombinant RlGabD tetramer
purified protein [6] = substrate: NC(=O)c1ccc[n+]([C@@H]2O[C@H](COP(=O)([O-])OP(=O)(O)OC[C@H]3O[C@@H](n4cnc5c(N)ncnc54)[C@H](OP(=O)(O)O)[C@@H]3O)[C@@H](O)[C@H]2O)c1; assay: purified protein; settings: […]′-phosphate binding residues Ser179 and Lys182 (E. coli SSADH numbering) conserved; varied: cofactor
purified protein [7] = substrate: O=CC(O)COP(=O)(O)O; assay: purified protein; settings: NADP+
purified protein [8] = substrate: O=CC(O)CS(=O)(=O)O; assay: purified protein; type: biochemical, Rhizobium leguminosarum; settings: NAD+ proposed: Cys295 nucleophile, Glu261 general base, Asn163 oxyanion hole, Arg171/Arg289 sulfonate binding
purified protein [9] = substrate: NC(=O)c1ccc[n+]([C@@H]2O[C@H](COP(=O)([O-])OP(=O)(O)OC[C@H]3O[C@@H](n4cnc5c(N)ncnc54)[C@H](O)[C@@H]3O)[C@@H](O)[C@H]2O)c1; assay: purified protein; type: biochemical, Rhizobium leguminosarum; settings: binds first to enzyme (rapid equilibrium ordered mechanism); varied: cofactor

Molecule: NC(=O)C1=CN([C@@H]2O[C@H](COP(=O)(O)OP(=O)(O)OC[C@H]3O[C@@H](n4cnc5c(N)ncnc54)[C@H](OP(=O)(O)O)[C@@H]3O)[C@@H](O)[C@H]2O)C=CC1 [NADPH]
- ΔTm at 10000 µM [4]: 2.5 °C

Molecule: NC(=O)C1=CN([C@@H]2O[C@H](COP(=O)(O)OP(=O)(O)OC[C@H]3O[C@@H](n4cnc5c(N)ncnc54)[C@H](O)[C@@H]3O)[C@@H](O)[C@H]2O)C=CC1 [NADH]
- ΔTm at 10000 µM [2]: 1.5 °C
- cryo-EM structure of binary complex at 2.52 Å [5]: The RlGabD·NADH complex shows the binding mode and positioning of the cofactor.

B1: RlGabD (SLA dehydrogenase) (Rhizobium leguminosarum bv. trifolii SRDI565) (protein)
chain: T1 sequence (A0AAJ6N661 1-489)
notes: recombinant RlGabD
- Km (purified protein [6]): 0.017 ± 0.0041 mM
- kcat (purified protein [6]): 4.1 s⁻¹
- kcat/Km (purified protein [6]): 240000 M⁻¹ s⁻¹
- Km (purified protein [7]): 0.17 ± 0.028 mM
- kcat (purified protein [7]): 3 s⁻¹
- kcat/Km (purified protein [7]): 10500 M⁻¹ s⁻¹
- Km (purified protein [8]): 0.13 ± 0.04 mM
- kcat (purified protein [8]): 17.8 ± 7 s⁻¹
- kcat/Km (purified protein [8]): 137000 ± 72000 M⁻¹ s⁻¹
- Km (purified protein [9]): 0.081 ± 0.019 mM
- kcat (purified protein [9]): 17.7 ± 3.2 s⁻¹
- kcat/Km (purified protein [9]): 210000 ± 63000 M⁻¹ s⁻¹

More lines, now with the values ahead:

- stoichiometry N [1]: 4
Molecule: SLA dehydrogenase RlGabD from Rhizobium leguminosarum SRDI565 (enzyme)

- ΔTm at 10000 µM [2]: 4.3 °C
Molecule: NC(=O)c1ccc[n+]([C@@H]2O[C@H](COP(=O)([O-])OP(=O)(O)OC[C@H]3O[C@@H](n4cnc5c(N)ncnc54)[C@H](O)[C@@H]3O)[C@@H](O)[C@H]2O)c1 [NAD^+]

- ΔTm at 10000 µM [2]: 3.5 °C
Molecule: NC(=O)c1ccc[n+]([C@@H]2O[C@H](COP(=O)([O-])OP(=O)(O)OC[C@H]3O[C@@H](n4cnc5c(N)ncnc54)[C@H](OP(=O)(O)O)[C@@H]3O)[C@@H](O)[C@H]2O)c1 [NADP^+]

- IC50 [3]: 28 µM
Molecule: NC(=O)C1=CN([C@@H]2O[C@H](COP(=O)(O)OP(=O)(O)OC[C@H]3O[C@@H](n4cnc5c(N)ncnc54)[C@H](O)[C@@H]3O)[C@@H](O)[C@H]2O)CCC1 [tetrahydro-NADH]
